Consider eight molecules from patent publication US20190375846A1 (ULTRAHUMAN ONE, published 2019).

Experiment [1] has as its target T1, human GITR at the cell surface (human, UniProt Q9Y5U5 26-241).
T1 construct: whole, on cells; The cell type is named in the assay field of each row; also called human GITR+ cells; CHO-K1 human GITR+ cells
T1 sequence (looked up): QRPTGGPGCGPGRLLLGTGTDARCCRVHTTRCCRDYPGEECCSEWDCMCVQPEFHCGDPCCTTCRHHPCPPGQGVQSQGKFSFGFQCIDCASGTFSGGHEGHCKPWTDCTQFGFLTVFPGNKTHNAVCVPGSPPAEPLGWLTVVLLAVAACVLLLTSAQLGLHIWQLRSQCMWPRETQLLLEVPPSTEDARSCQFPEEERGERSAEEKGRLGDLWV
The experiment can be described thus: flow cytometry, human GITR-transfected murine blastoma cells, 10,000-13.7 ng/ml. On the procedure: (§1) Concentration-dependent binding to GITR at the cell surface was analysed using flow cytometry.

For experiment [2], the target named is T2, human GITR-Fc (human, UniProt Q9Y5U5 26-161).
T2 construct: Recombinant GITR-Fc; also called hGITR-Fc; hGITR; not shown: Fc part
T2 sequence (looked up): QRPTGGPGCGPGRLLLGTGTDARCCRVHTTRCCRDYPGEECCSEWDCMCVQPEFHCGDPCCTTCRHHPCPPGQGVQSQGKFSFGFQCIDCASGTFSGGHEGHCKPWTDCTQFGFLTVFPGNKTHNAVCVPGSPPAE
The experiment is described as follows: HTRF competition: unlabelled IgG1 titrated 0.003-100 µg/ml against terbium-labelled VH1/VL1 IgG on biotinylated human GITR-Fc with SA-XL665, 665/615 ratio. On the procedure:
A competition HTRF assay was established to examine epitope competition against VH1/VL1 IgG by grafted and library-derived clones. The purified VH1/VL1 IgG was labelled with terbium using a labelling kit (CisBio) per the manufacturers instructions. The final reaction mix contained biotinylated human GITR-Fc, SA-XL665 (CisBio), terbium-labelled parental […], and competitor IgG of interest, prepared as described above, in a total reaction volume of 20 μl in 1× assay buffer [50 mM sodium phosphate, pH 7.5, 400 mM potassium fluoride, and 0.1% BSA (w/v)]. Reagents were added sequentially on a MiniTrak Liquid Handling Platform (Perkin-Elmer) into 384-well low-volume black plates (Nunc). Reactions proceeded for 1 h at room temperature, and plates were subsequently read on a plate reader with excitation at 340 nm and two emission readings at 615 nm (measuring input donor fluorescence from VH1-VL1-cryptate) and 665 nm (measuring output acceptor fluorescence from SAXL665). Readings were expressed as 665 nm/615 nm ratios.
To examine the competition of the library-derived clones with the unaltered, closest-germline grafted CDRs of VH1/VL1 IgG, an Homogeneous Time Resolved Fluorescence (HTRF) assay was established. This assay incorporated terbium-labelled VH1/VL1 IgG, Biotinylated hGITR-Fc and streptavidin-XL665, in solution-phase binding. […]

Experiment [3] deals with T1, human GITR at the cell surface. The experiment is described as follows: flow cytometry on CHO-K1 human GITR+ cells; competitor: soluble human GITRL.
The target is the same in experiment [4]. The experiment is described as follows: cell-based or functional assay.
Experiment [5] addresses T3, cynomolgus monkey GITR at the cell surface (cynomolgus monkey). The experiment can be described thus: cell-based or functional assay.
Experiment [6] has as its target T3, cynomolgus monkey GITR at the cell …. The experiment can be described thus: flow cytometry, cyno GITR-transfected murine blastoma cells, 10,000-13.7 ng/ml. On the procedure: as §1
Experiment [7] addresses T2, human GITR-Fc. The experiment is described as follows: ELISA of IgG1 proteins. Here is the method: (§2) To coat Greiner Bio-One High bind ELISA plates, target proteins were diluted to 1 μg/ml in carbonate buffer and added at 100 μl per well, at 4° C., o/n. Coated plates were washed 3× with PBS pH7.4, blocked with 1% BSA in PBS (380 μl/well) for 1 hr at RT, then washed 3× with PBS-Tween 20 (PBST). GITR antibodies (100 μl/well; diluted in PBST) were then added and then incubated 1 hr at RT. Plates were then washed 3× with PBST and goat anti-human kappa chain-HRP added (100 μl/well) at RT, for 1 hr. Plates were then washed 3× with PBST and twice with PBS before the addition of 100 μl TMB per well. Reactions were stopped by adding 100 μl 2M H₂SO₄/well and OD was read on a plate reader at 450 nm. IgG binding analysis via ELISA on negatively charged biomolecular surfaces were performed as previously described (see Mouquet et al., 2010, Nature 467: 591-595).
To examine the influence of these mutations on immunogenicity and function, five further designer mutants (A6.1 to A6.5, see Table 4 for CDR sequences) were also submitted for Epibase analysis (Table 5). […] Cyno GITR binding was greatly diminished for all of clones A6.2 to A6.5.

Experiment [8] has as its target T2, human GITR-Fc. The experiment is described as follows: direct titration ELISA on coated human GITR-Fc, IgG1 0.001-1 µg/ml, OD 450 nm. On the procedure:
as §2
The 17 purified IgGs described above were then tested for binding to human and cyno GITR-Fc in direct titration ELISA format.

For experiment [9], the target named is T4, cynomolgus monkey GITR-Fc (cynomolgus monkey (Macaca fascicularis)).
T4 construct: also called cyno GITR-Fc; cGITR-Fc
The experiment can be described thus: SPR (Biacore), Fab over GITR-Fc captured on anti-human Fc. Here is the method:
(§3) For affinity estimation, anti-human IgG Fc antibody was amine coupled at pH 5 onto three flow cells (Fc 1 to Fc 3) of a Biacore CM5 chip. The level of anti-Fc antibody immobilised onto the chip was approximately 550 RU. Human and cyno GITR-Fc and irrelevant receptor-Fc proteins were then captured onto the anti-Fc antibodies (by injecting over the antibody surface until nearly/completely saturated) in order that 80-100 RU were captured. Fab monomers were then injected over the Fc proteins captured on the chip at 37° C. a flow rate of 50 μl/min for 120 seconds, followed by Biacore running buffer (HBS-EP) being flowed over the chip for 240 seconds at 50 μl/min. The chip was regenerated between cycles using 2×15 second injections of 10 mM Glycine pH 2. The concentrations of Fab samples tested were 400, 200, 100, 50, 25, 12.5, and 6.25 nM. A Biacore running buffer control (0 nM) was also included as a control.
(§4) Monomeric Fab fragments were generated and flowed in the mobile phase on human and cyno GITR-Fc coated biosensor chips, to derive 1:1 binding values.

Experiment [10] addresses T4, cynomolgus monkey GITR-Fc. The experiment can be described thus: SPR (Biacore), Fab over GITR-Fc captured on anti-human Fc, 37 C, 1:1 model. On the procedure: as §3, §4
The target of experiment [11] is T2, human GITR-Fc. The experiment is described as above. On the procedure: as §3, §4

B1: VH1/VL1 IgG1 (antibody, V domains shown)
VH: QVTLRESGPALVKPTQTLTLTCTFSGFSLSTSGMGVGWIRQPPGKALEWLAHIWWDDDKYYNPSLKSRLTISKDTSKNQVVLTMTNMDPVDTATYYCARTRRYFPFAYWGQGTLVTVSS
VL: EIVMTQSPATLSVSPGERATLSCKASQNVGTNVAWYQQKPGQAPRLLIYSASYRYSGIPARFSGSGSGTEFTLTISSLQSEDFAVYYCQQYNTDPLTFGGGTKVEIK
notes: Full-length human IgG1; also called hVH1/VL1; G-VH1/VL1
For the molecule B1, the “concentration at maximum MFI” value in experiment [1] and in experiment [6] was about 1110 ng/mL each time. Moreover, in the experiment with human GITR-Fc [2], the “IC50 (read off the curve)” value is about 1 µg/mL. Moreover, the “fold reduction of binding signal in the presence of 10 µg/ml soluble GITRL” value in experiment [3] is over 10 fold. Besides, the “EC50 of FcγRIIIa activation, Promega ADCC reporter assay, CHO-K1 target cells expressing human GITR” value in experiment [4] turned out to be 35.6 nM. Besides, in experiment [5], the “EC50 of FcγRIIIa activation, Promega ADCC reporter assay, CHO-K1 target cells expressing cyno GITR” value turned out to be 160 nM.

B2: A6.1 IgG1 (antibody, V domains shown)
VH: EVQLVESGGGLVQPGGSLRLSCAASGFSLSTSGYGVGWVRQAPGKGLEWLAHIWWDDDKYYVDSVKGRFTISRDNAKNSLYLQMNSLRAEDTAVYYCARTRQYFPFAYWGQGTLVTVSS
VL: EIVLTQSPATLSLSPGERATLSCRASQSVGSNLAWYQQKPGQAPRLLIYSASNRYTGIPARFSGSGSGTDFTLTISSLEPEDFAVYYCQQYSTDPLTFGGGTKVEIK
notes: Human IgG1, designer mutant of D-A6; built as m28; also called D-A6.1; Clone A6.1
In the case of B2, the binding result in the experiment with human GITR-Fc [7] is recorded as “binds”.

B3: A6.5 IgG1 (antibody, V domains shown)
VH: EVQLVESGGGLVQPGGSLRLSCAASGFSLSTSGYGMGWVRQAPGKGLEWLAHIWWDDDKYYVDSVKGRFTISRDNAKNSLYLQMNSLRAEDTAVYYCARTRQYFPFAYWGQGTLVTVSS
VL: EIVLTQSPATLSLSPGERATLSCRASQSVGSNLAWYQQKPGQAPRLLIYSASNRYTGIPARFSGSGSGTDFTLTISSLEPEDFAVYYCQQYSTDPLTFGGGTKVEIK
notes: Human IgG1, designer mutant of D-A6; built as m28; also called Clone A6.5
B3: the binding result with human GITR-Fc [7] is listed as “binds”.

B4: A6.4 IgG1 (antibody, V domains shown)
VH: EVQLVESGGGLVQPGGSLRLSCAASGFSLSTSGYGMSWVRQAPGKGLEWLAHIWWDDDKYYVDSVKGRFTISRDNAKNSLYLQMNSLRAEDTAVYYCARTRQYFPFAYWGQGTLVTVSS
VL: EIVLTQSPATLSLSPGERATLSCRASQSVGSNLAWYQQKPGQAPRLLIYSASNRYTGIPARFSGSGSGTDFTLTISSLEPEDFAVYYCQQYSTDPLTFGGGTKVEIK
notes: Human IgG1, designer mutant of D-A6; built as m28; also called Clone A6.4
On to B4, for which the binding result with human GITR-Fc [7] is reported as “binds”.

B5: MH IgG1 (Maximally Humanized designer clone) (antibody, V domains shown)
VH: EVQLVESGGGLVQPGGSLRLSCAASGFSLSTSGYGMSWVRQAPGKGLEWVAHIWWDDEKYYVDSVKGRFTISRDNAKNSLYLQMNSLRAEDTAVYYCARTRQYFPFAYWGQGTLVTVSS
VL: EIVLTQSPATLSLSPGERATLSCRASQSVGSNLAWYQQKPGQAPRLLIYSASYRATGIPARFSGSGSGTDFTLTISSLEPEDFAVYYCQQYSTDPLTFGGGTKVEIK
notes: Human IgG1, designer clone; also called Clone MH
Take B5: the binding result with human GITR-Fc [8] is on record as “binds”.

B6: D-A6 Fab (Fab, V domains shown)
VH: EVQLVESGGGLVQPGGSLRLSCAASGFSLSTSGYGVGWVRQAPGKGLEWLAHIWWDDDKYYVDSVKGRFTISRDNAKNSLYLQMNSLRAEDTAVYYCARTRQYFPFAYWGQGTLVTVSS
VL: EIVLTQSPATLSLSPGERATLSCRASQSVGSNLAWYQQKPGQAPRLLIYSASYRYTGIPARFSGSGSGTDFTLTISSLEPEDFAVYYCQQYSTDPLTFGGGTKVEIK
notes: v-domains built as m25; also called D-A6 Fab fragment
On to B6, for which the “fold improved affinity against VH1/VL1 Fab” value in [9] was about 4 fold. In experiment [10], the Kd was found to be 57 nM, the dissociation rate constant (koff) turned out to be 0.0021 s⁻¹ and the association rate constant (kon) was 37000 M⁻¹ s⁻¹. In the experiment with human GITR-Fc [11], this molecule gave a dissociation constant (Kd) of 120 nM, a koff of 0.011 s⁻¹ and an association rate constant (kon) of 92000 M⁻¹ s⁻¹.

B7: A6.3 IgG1 (antibody, V domains shown)
VH: EVQLVESGGGLVQPGGSLRLSCAASGFSLSTSGYGVSWVRQAPGKGLEWLAHIWWDDDKYYVDSVKGRFTISRDNAKNSLYLQMNSLRAEDTAVYYCARTRQYFPFAYWGQGTLVTVSS
VL: EIVLTQSPATLSLSPGERATLSCRASQSVGSNLAWYQQKPGQAPRLLIYSASNRYTGIPARFSGSGSGTDFTLTISSLEPEDFAVYYCQQYSTDPLTFGGGTKVEIK
notes: Human IgG1, designer mutant of D-A6; built as m28; also called Clone A6.3
For B7, the binding result with human GITR-Fc [7] is recorded as “binds”.

B8: A6.2 IgG1 (antibody, V domains shown)
VH: EVQLVESGGGLVQPGGSLRLSCAASGFSLSTSGYGVGWVRQAPGKGLEWLAHIWWDDDKYYVDSVKGRFTISRDNAKNSLYLQMNSLRAEDTAVYYCARTRQYFPFAYWGQGTLVTVSS
VL: EIVLTQSPATLSLSPGERATLSCRASQSVGSNLAWYQQKPGQAPRLLIYSASNRYTGIPARFSGSGSGTDFTLTISSLEPEDFAVYYCQQYSTNPLTFGGGTKVEIK
notes: Human IgG1, designer mutant of D-A6; built as m28; also called Clone A6.2
As to B8, in the experiment with human GITR-Fc [7], the binding result was “binds”.
